According to article PMC3413153:
Where a chain is given by its changes, count along the chain named.

Assays:
KSRP KH4 = target: T1, KSRP KH4 (human, UniProt Q92945); experiment: NMR
T1 sequence: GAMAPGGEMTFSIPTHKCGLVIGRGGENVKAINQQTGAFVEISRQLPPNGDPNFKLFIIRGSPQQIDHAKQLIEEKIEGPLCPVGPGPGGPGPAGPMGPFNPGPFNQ

KSRP KH3 = target: T2, KSRP KH3 (human, UniProt Q92945); experiment: NMR
T2 sequence: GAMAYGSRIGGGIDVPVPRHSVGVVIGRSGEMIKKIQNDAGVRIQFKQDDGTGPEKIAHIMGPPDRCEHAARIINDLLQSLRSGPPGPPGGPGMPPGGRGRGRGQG

KSRP KH1 = target: T3, KSRP KH1 (human, UniProt Q92945); experiment: NMR
T3 sequence: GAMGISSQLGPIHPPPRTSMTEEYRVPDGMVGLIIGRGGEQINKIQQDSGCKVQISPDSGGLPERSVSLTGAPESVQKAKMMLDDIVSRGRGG

ZBP1 KH34 (Y396F) = ZBP1 KH34 (Y396F) (UniProt Q9NZI8, Y396F); experiment: NMR
KSRP KH1-4, KH1 mutant = target: T4, KSRP KH1-4, KH1 mutant (human, UniProt Q92945 68-525, R162D;G163D); experiment: BLI
T4 sequence: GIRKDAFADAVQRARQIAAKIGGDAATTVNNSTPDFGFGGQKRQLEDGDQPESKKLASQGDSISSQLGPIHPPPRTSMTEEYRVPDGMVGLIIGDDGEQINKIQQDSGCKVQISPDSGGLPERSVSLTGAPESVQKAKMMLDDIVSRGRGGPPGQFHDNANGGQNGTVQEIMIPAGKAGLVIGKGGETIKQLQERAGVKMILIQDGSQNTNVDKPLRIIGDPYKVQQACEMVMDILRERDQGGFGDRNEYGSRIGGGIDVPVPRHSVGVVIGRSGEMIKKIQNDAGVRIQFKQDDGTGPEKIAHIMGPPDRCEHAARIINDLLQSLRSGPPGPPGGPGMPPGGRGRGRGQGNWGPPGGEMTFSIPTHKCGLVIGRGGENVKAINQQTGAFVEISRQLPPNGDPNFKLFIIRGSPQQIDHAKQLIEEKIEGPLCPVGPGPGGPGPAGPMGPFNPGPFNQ

KSRP KH1-4 WT = target: T5, KSRP KH1-4 WT (human, UniProt Q92945); experiment: BLI
T5 sequence: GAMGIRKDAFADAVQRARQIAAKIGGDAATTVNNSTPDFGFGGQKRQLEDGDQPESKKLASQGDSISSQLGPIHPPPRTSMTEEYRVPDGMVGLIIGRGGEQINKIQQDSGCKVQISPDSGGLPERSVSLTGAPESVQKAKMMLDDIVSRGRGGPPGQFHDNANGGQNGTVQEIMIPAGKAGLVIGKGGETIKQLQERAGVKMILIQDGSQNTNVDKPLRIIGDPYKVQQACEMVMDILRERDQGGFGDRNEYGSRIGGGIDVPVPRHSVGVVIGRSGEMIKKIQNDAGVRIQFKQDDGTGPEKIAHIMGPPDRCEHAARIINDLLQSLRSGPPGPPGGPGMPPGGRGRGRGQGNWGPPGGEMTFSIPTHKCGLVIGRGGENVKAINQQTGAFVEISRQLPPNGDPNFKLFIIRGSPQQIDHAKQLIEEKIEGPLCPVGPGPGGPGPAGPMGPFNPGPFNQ

KSRP KH1-4, KH4 mutant = target: T6, KSRP KH1-4, KH4 mutant (human, UniProt Q92945 68-525, R442D;G443D); experiment: BLI
T6 sequence: T4 sequence with D95R, D96G, R375D, G376D

KSRP KH1-4, KH3 mutant = target: T7, KSRP KH1-4, KH3 mutant (human, UniProt Q92945 68-525, R340D;S341D); experiment: BLI
T7 sequence: T4 sequence with D95R, D96G, R273D, S274D

KSRP KH1-4, KH2 mutant = target: T8, KSRP KH1-4, KH2 mutant (human, UniProt Q92945 68-525, K251D;G252D); experiment: BLI
T8 sequence: T4 sequence with D95R, D96G, K184D, G185D

KSRP KH2 = target: T9, KSRP KH2 (human, UniProt Q92945); experiment: NMR
T9 sequence: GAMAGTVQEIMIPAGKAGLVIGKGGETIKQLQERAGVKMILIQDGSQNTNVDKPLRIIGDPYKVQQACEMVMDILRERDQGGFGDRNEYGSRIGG

B1: UAGGG (ssRNA)
RNA: UAGGG
B1: binds (KSRP KH4).

B2: UGGGU (ssRNA)
RNA: UGGGU
B2: binds (KSRP KH3).

B3: UUGGG (ssRNA)
RNA: UUGGG
B3: binds (KSRP KH1).

B4: GCACACCC (ssRNA)
RNA: GCACACCC
B4: binds (ZBP1 KH34 (Y396F)).

B5: TNFalpha BLI ARE 42-mer (ssRNA)
RNA: GUGUGUUAUUAUUUAUUAUUUAUUUAUUAUUUAUUUAUUCAG
B5 was tested, and the Kd (KSRP KH1-4, KH1 mutant) was 7.3 ± 1.7 nM, the Kd (KSRP KH1-4 WT) was 3.6 ± 1.4 nM and the Kd (KSRP KH1-4, KH4 mutant) was 50 ± 16 nM. It also gave a Kd (KSRP KH1-4, KH3 mutant) of 95 ± 19 nM and a Kd (KSRP KH1-4, KH2 mutant) of 43 ± 14 nM.

B6: UUUAG (ssRNA)
RNA: UUUAG
B6: binds (KSRP KH2).
